In paper PMC9263169, “Aptamer-antibody hybrid ELONA that uses hybridization chain reaction to detect a urinary biomarker EN2 for bladder and prostate cancer” one finds binding result and Kd data, which are given here for two molecules.

In data set [1] the target is T1, EN2 (Engrailed-2), recombinant (human, UniProt P19622 1-333).
T1 sequence: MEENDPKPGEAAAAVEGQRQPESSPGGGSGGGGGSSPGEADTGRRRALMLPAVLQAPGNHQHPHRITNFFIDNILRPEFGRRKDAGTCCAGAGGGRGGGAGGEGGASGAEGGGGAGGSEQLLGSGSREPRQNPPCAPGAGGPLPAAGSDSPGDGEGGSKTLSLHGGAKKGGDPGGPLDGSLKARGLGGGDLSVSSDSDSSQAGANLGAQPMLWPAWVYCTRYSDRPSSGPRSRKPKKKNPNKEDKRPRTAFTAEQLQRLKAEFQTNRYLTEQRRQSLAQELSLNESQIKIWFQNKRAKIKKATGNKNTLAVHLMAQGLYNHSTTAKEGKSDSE
The data set can be described thus: plate fluorescence binding (EN2 immobilized); signal saturates at 250 nM EN2; 20 mM Tris-HCl, 50 mM NaCl, 5 mM KCl, 5 mM MgCl2, pH 8.0, room temperature, 1 h. As to conditions: protein: recombinant; tags: N-terminal His (pET28a); label: 5'-FAM; hairpin.

The target in data set [2] is T1, EN2 (Engrailed-2), recombinant. Kind of data set: magnetic-bead fluorescence assay (His-EN2 on NTA beads); 5 mM Mg2+; 20 mM Tris-HCl, 50 mM NaCl, 5 mM KCl, 5 mM MgCl2, pH 8.0, room temperature, 1 h. As to conditions: protein: recombinant; tags: N-terminal His (pET28a); label: 5'-FAM.

Regarding CGCATAATTACCTCCAGAAGGAGAGGTAATTATGCG (structured_DNA) [EN2 motif hairpin DNA], the binding result in data set [1] was “binds”.

On to AGCGGATCCGAGGTGAGGAGCGCCGGTGAGACTCCTTCATTCTATCTGCT (structured_DNA) [EBA (trimmed H90)], for which, in data set [2], the Kd was 8.26 nM.
